Drawing on patent US20160264649A1, this text covers neutralization IC50 for four substances.

Common to all, as to test: cell-based or functional assay
Experiment [1] concerns the target HIV-1 93UG077 Env (HIV-1).
Experiment [2] addresses HIV-1 MGRM-A-010 Env (HIV-1).
For experiment [3], the target named is HIV-1 MGRM-A-007 Env (HIV-1).
Experiment [4] deals with HIV-1 92RW009 Env (HIV-1).
Experiment [5] concerns the target HIV-1 94UG103 Env (HIV-1).
The target in experiment [6] is HIV-1 92RW020 Env (HIV-1).
The target of experiment [7] is HIV-1 92RW008 Env (HIV-1).
Experiment [8] addresses HIV-1 MGRM-A-009 Env (HIV-1).
In experiment [9] the target is HIV-1 MGRM-A-004 Env (HIV-1).
Experiment [10] deals with HIV-1 MGRM-A-014 Env (HIV-1).
For experiment [11], the target named is HIV-1 92UG031 Env (HIV-1).
The target of experiment [12] is HIV-1 MGRM-A-012 Env (HIV-1).
The target in experiment [13] is HIV-1 MGRM-A-006 Env (HIV-1).
Experiment [14] concerns the target HIV-1 MGRM-A-002 Env (HIV-1).
Experiment [15] deals with HIV-1 MGRM-A-005 Env (HIV-1).
Experiment [16] has as its target HIV-1 94KE105 Env (HIV-1).
The target of experiment [17] is HIV-1 93RW029 Env (HIV-1).
Experiment [18] deals with HIV-1 92RW021 Env (HIV-1).
Experiment [19] concerns the target HIV-1 MGRM-A-013 Env (HIV-1).
Another experiment has as its target HIV-1 VLGCA1 Env (HIV-1).
For experiment [20], the target named is HIV-1 MGRM-A-003 Env (HIV-1).

Chain of 1443_C16 (PG16) (TCN-116) (antibody) (VH): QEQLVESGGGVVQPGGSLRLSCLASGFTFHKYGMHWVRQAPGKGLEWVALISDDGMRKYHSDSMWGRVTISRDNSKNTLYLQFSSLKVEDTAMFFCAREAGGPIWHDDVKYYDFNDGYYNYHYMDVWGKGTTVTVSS
Chain of 1443_C16 (PG16) (TCN-116) (antibody) (VL): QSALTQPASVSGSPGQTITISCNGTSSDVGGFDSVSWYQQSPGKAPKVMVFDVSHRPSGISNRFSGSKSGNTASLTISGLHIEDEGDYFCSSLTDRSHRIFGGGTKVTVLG

For the substance 4E10 (antibody), the neutralization IC50 in experiment [1] is 10.6 µg/mL; in [2] it was 14.4 µg/mL; in [3] it was 1.82 µg/mL; in [4] it was greater than 50 µg/mL; in [5], 4.97 µg/mL; in experiment [6], 4.54 µg/mL. The neutralization IC50 in experiment [7] was found to be 14.5 µg/mL; in experiment [8], 12 µg/mL; in experiment [9] it was 3.14 µg/mL; in experiment [10], 1.74 µg/mL; in experiment [11], 4.94 µg/mL; in experiment [12], 4.27 µg/mL. For the same substance, the neutralization IC50 in experiment [13] worked out at 9.87 µg/mL; in experiment [14], 6.45 µg/mL; in experiment [15] it was 4.09 µg/mL; in experiment [16] it was 7.63 µg/mL; in [17] it was 15.5 µg/mL; in [18], 4.87 µg/mL. Further, the neutralization IC50 in experiment [19] was found to be 1.46 µg/mL; in the experiment with HIV-1 VLGCA1 Env (HIV-1) it was 4.58 µg/mL; in [20], 5.94 µg/mL.

Consider 1443_C16 (PG16) (TCN-116) (antibody), for which the neutralization IC50 is greater than 50 µg/mL in experiment [1]; 0.004 µg/mL in experiment [2]; 5.91 µg/mL in experiment [3]; 0.11 µg/mL in [4]; 0.04 µg/mL in experiment [5]; 0.28 µg/mL in experiment [6]. Moreover, the neutralization IC50 is 0.002 µg/mL in experiment [7]; 0.01 µg/mL in experiment [8]; 0.04 µg/mL in [9]; 20.3 µg/mL in [10]; 0.43 µg/mL in experiment [11]; 20.7 µg/mL in experiment [12]. For the same substance, the neutralization IC50 in experiment [13] was greater than 50 µg/mL; in experiment [14], 0.004 µg/mL; in experiment [15], 0.09 µg/mL; in [16] it was 6.13 µg/mL; in [17], 3.83 µg/mL; in experiment [18], 0.11 µg/mL. For the same substance, the neutralization IC50 in experiment [19] was 0.09 µg/mL; with HIV-1 VLGCA1 Env (HIV-1), 0.18 µg/mL; in experiment [20] it was 2.65 µg/mL.

With 1495_C14 (PGC14) (antibody), the neutralization IC50 in [1] is greater than 50 µg/mL; in experiment [2], greater than 50 µg/mL; in experiment [3], greater than 50 µg/mL; in [4], greater than 50 µg/mL; in [5] it was greater than 50 µg/mL; in experiment [6], 46 µg/mL. Further, the neutralization IC50 is 37 µg/mL in [7]; greater than 50 µg/mL in experiment [8]; greater than 50 µg/mL in experiment [9]; greater than 50 µg/mL in experiment [10]; greater than 50 µg/mL in experiment [11]; greater than 50 µg/mL in [12]. In addition, the neutralization IC50 in experiment [13] is greater than 50 µg/mL; in [14], greater than 50 µg/mL; in experiment [15], greater than 50 µg/mL; in experiment [16], greater than 50 µg/mL; in experiment [17] it was 42 µg/mL; in experiment [18], greater than 50 µg/mL. The neutralization IC50 (in [19]; with HIV-1 VLGCA1 Env (HIV-1); in [20]) was greater than 50 µg/mL in each case.

Regarding b12 (antibody), the neutralization IC50 is 47 µg/mL in [1]; greater than 50 µg/mL in [2]; greater than 50 µg/mL in experiment [3]; greater than 50 µg/mL in experiment [4]; 6.92 µg/mL in experiment [5]; greater than 50 µg/mL in experiment [6]. For the same substance, the neutralization IC50 in experiment [7] is 9.46 µg/mL; in experiment [8] it was 4.34 µg/mL; in experiment [9] it was greater than 50 µg/mL; in experiment [10], greater than 50 µg/mL; in experiment [11] it was greater than 50 µg/mL; in [12], greater than 50 µg/mL. For the same substance, the neutralization IC50 in experiment [13] was 13.6 µg/mL; in [14], greater than 50 µg/mL; in experiment [15] it was 3.64 µg/mL; in [16], greater than 50 µg/mL; in experiment [17], greater than 50 µg/mL; in experiment [18], greater than 50 µg/mL. Moreover, the neutralization IC50 in [19] was 7.04 µg/mL; with HIV-1 VLGCA1 Env (HIV-1) it was greater than 50 µg/mL; in [20], greater than 50 µg/mL.
